Reference: patent publication US20110118447A1
Residue numbers refer to the chain shown, from its start. Names may count otherwise. Values belong to the binder of their own block, whether it stands above or below them.

What was measured:
[1] = molecular target: binding partner of C5A (XPA23); test: Biacore, K-off
[2] = molecular target: binding partner of C5A (XPA23); test: Biacore

B1: C5A (XPA23) VH R59Q (antibody, V domains shown)
VH: EVQLLESGGGLVQPGGSLRLSCAASGFTFSKYFMFWVRQAPGKGLEWVSVISPSGGMTQYADSVKGRFTISRDNSKNTLYLQMNSLRAEDTAVYYCARVGYGGNSDYWGQGTLVTVSS
VL: DIQMTQSPSSVSASVGDRLTIICRASQDINRWLAWYQQTPGNAPKLLIHSATSLQSGVPSRFSGSGSGTDFTLTINSLQPEDFATYYCQQADSFPLTFGGGTKVEIK
- fold difference in affinity vs original [1]: 0.86 fold
- fold affinity vs original [2]: 0.86 fold

B3: C5A (XPA23) VH D106E (antibody, V domains shown)
VH: B1 VH with Q59R, D106E
VL: B1 VL
- fold difference in affinity vs original [1]: 0.04 fold
- fold affinity vs original [2]: 0.04 fold

B4: C5A (XPA23) VH D106S (antibody, V domains shown)
VH: B1 VH with Q59R, D106S
VL: B1 VL
- fold difference in affinity vs original [1]: 0.03 fold
- fold affinity vs original [2]: 0.03 fold

B5: C5A (XPA23) VH S105H (antibody, V domains shown)
VH: B1 VH with Q59R, S105H
VL: B1 VL
- fold difference in affinity vs original [1]: 0.05 fold
- fold affinity vs original [2]: 0.05 fold

B6: C5A (XPA23) VH D106H (antibody, V domains shown)
VH: B1 VH with Q59R, D106H
VL: B1 VL
- fold difference in affinity vs original [1]: 0.02 fold
- fold affinity vs original [2]: 0.02 fold

B7: C5A (XPA23) VH D106N (antibody, V domains shown)
VH: B1 VH with Q59R, D106N
VL: B1 VL
- fold difference in affinity vs original [1]: 0.07 fold
- fold affinity vs original [2]: 0.07 fold

B8: C5A (XPA23) VH N104S (antibody, V domains shown)
VH: B1 VH with Q59R, N104S
VL: B1 VL
- fold difference in affinity vs original [1]: 1.02 fold
- fold affinity vs original [2]: 1.02 fold

B9: C5A (XPA23) VH D106K (antibody, V domains shown)
VH: B1 VH with Q59R, D106K
VL: B1 VL
- fold difference in affinity vs original [1]: 0.04 fold
- fold affinity vs original [2]: 0.04 fold

B10: C5A (XPA23) VH G100T (antibody, V domains shown)
VH: B1 VH with Q59R, G100T
VL: B1 VL
- fold difference in affinity vs original [1]: 0.12 fold
- fold difference in affinity vs original [2]: 0.12 fold

B13: C5A (XPA23) VH N104Q (antibody, V domains shown)
VH: B1 VH with Q59R, N104Q
VL: B1 VL
- fold difference in affinity vs original [1]: 0.03 fold
- fold affinity vs original [2]: 0.03 fold

B17: C5A (XPA23) VH N104H (antibody, V domains shown)
VH: B1 VH with Q59R, N104H
VL: B1 VL
- fold difference in affinity vs original [1]: 0.07 fold
- fold affinity vs original [2]: 0.07 fold

B18: C5A (XPA23) VH G100Y (antibody, V domains shown)
VH: B1 VH with Q59R, G100Y
VL: B1 VL
- fold difference in affinity vs original [1]: 0.09 fold
- fold affinity vs original [2]: 0.09 fold

B20: C5A (XPA23) VH G100H (antibody, V domains shown)
VH: B1 VH with Q59R, G100H
VL: B1 VL
- fold difference in affinity vs original [1]: 0.06 fold
- fold affinity vs original [2]: 0.06 fold

B22: C5A (XPA23) VH S105E (antibody, V domains shown)
VH: B1 VH with Q59R, S105E
VL: B1 VL
- fold difference in affinity vs original [1]: 1.17 fold
- fold affinity vs original [2]: 1.17 fold

B23: C5A (XPA23) VH D106R (antibody, V domains shown)
VH: B1 VH with Q59R, D106R
VL: B1 VL
- fold difference in affinity vs original [1]: 0.06 fold
- fold affinity vs original [2]: 0.06 fold

B24: C5A (XPA23) VH N104T (antibody, V domains shown)
VH: B1 VH with Q59R, N104T
VL: B1 VL
- fold difference in affinity vs original [1]: 0.95 fold
- fold difference in affinity vs original [2]: 0.95 fold

B26: C5A (XPA23) VH G100S (antibody, V domains shown)
VH: B1 VH with Q59R, G100S
VL: B1 VL
- fold difference in affinity vs original [1]: 2.8 fold
- fold affinity vs original [2]: 2.8 fold

B28: C5A (XPA23) VH G102N (antibody, V domains shown)
VH: B1 VH with Q59R, G102N
VL: B1 VL
- fold difference in affinity vs original [1]: 1.17 fold
- fold affinity vs original [2]: 1.17 fold

The next lines start with the values.

- fold difference in affinity vs original [1]: 0.85 fold
- fold affinity vs original [2]: 0.85 fold
B2: C5A (XPA23) VH S105N (antibody, V domains shown)
VH: B1 VH with Q59R, S105N
VL: B1 VL

- fold difference in affinity vs original [1]: 0.04 fold
- fold affinity vs original [2]: 0.04 fold
B11: C5A (XPA23) VH Y101H (antibody, V domains shown)
VH: B1 VH with Q59R, Y101H
VL: B1 VL

- fold difference in affinity vs original [1]: 0.06 fold
- fold difference in affinity vs original [2]: 0.06 fold
B12: C5A (XPA23) VH Y101T (antibody, V domains shown)
VH: B1 VH with Q59R, Y101T
VL: B1 VL

- fold difference in affinity vs original [1]: 0.06 fold
- fold affinity vs original [2]: 0.06 fold
B14: C5A (XPA23) VH Y101N (antibody, V domains shown)
VH: B1 VH with Q59R, Y101N
VL: B1 VL

- fold difference in affinity vs original [1]: 0.98 fold
- fold affinity vs original [2]: 0.98 fold
B15: C5A (XPA23) VH S105Q (antibody, V domains shown)
VH: B1 VH with Q59R, S105Q
VL: B1 VL

- fold difference in affinity vs original [1]: 0.06 fold
- fold affinity vs original [2]: 0.06 fold
B16: C5A (XPA23) VH Y101Q (antibody, V domains shown)
VH: B1 VH with Q59R, Y101Q
VL: B1 VL

- fold difference in affinity vs original [1]: 0.1 fold
- fold difference in affinity vs original [2]: 0.1 fold
B19: C5A (XPA23) VH V99T (antibody, V domains shown)
VH: B1 VH with Q59R, V99T
VL: B1 VL

- fold difference in affinity vs original [1]: 0.11 fold
- fold difference in affinity vs original [2]: 0.11 fold
B21: C5A (XPA23) VH S105T (antibody, V domains shown)
VH: B1 VH with Q59R, S105T
VL: B1 VL

- fold difference in affinity vs original [1]: 0.03 fold
- fold affinity vs original [2]: 0.03 fold
B25: C5A (XPA23) VH Y101E (antibody, V domains shown)
VH: B1 VH with Q59R, Y101E
VL: B1 VL

- fold difference in affinity vs original [1]: 0.85 fold
- fold affinity vs original [2]: 0.85 fold
B27: C5A (XPA23) VH Y101R (antibody, V domains shown)
VH: B1 VH with Q59R, Y101R
VL: B1 VL
